Data set [1] deals with MSNs in the striatum (STR). Description: Promoter activity driving EYFP reporter expression after AAV injection into the SNr: striatum. The class given is in vivo, mice. Conditions: for Activity Level STR: numbers of YFP-expressing neurons per animal. An excerpt: (§1) Brain profiles of two epigenetic marks for enhancers and promoters, monomethylation of histone H3 lysine 4 (H3K4me1) and acetylation of histone H3 lysine 27 (H3K27ac) were checked and approximately 2 kilobase-long sequences around the transcriptional start site (TSS) that have high levels of H3K4me1 and/or H3K27ac were identified in mouse brain. Homologous sequences at equivalent positions of the human genome were then cloned onto an AAV backbone, and the activity of the homologous sequences in directing reporter expression was tested in mice after injections of AAVs into the SNr (FIG. 3A-C, TABLE 3).
G88P2 (2259 bp) was cloned with the following primers: 5′-[…] (SEQ ID NO.: 36) and 3-[…] (SEQ ID NO.: 37). To increase the payload of AAV genome, the G88P2 promoter was shorted using restriction enzymes, and two derivatives, G88P3 and G88P7, were made which were 1395-bp and 896-bp long, respectively (FIG. 3A-3C). Comparative efficiency in labeling MSNs for the two shortened promoters was observed. For mice that received viral injections into the SNr, viruses expressing EYFP driven by G88P3 and G88P7 promoters labeled 3.7±0.66×104 and 3.95±0.73×104 MSNs per mouse, respectively, compared to 1.61±0.16×104 labeled MSNs by hSyn promoter (FIG. 4B).
(§2) Region-selective promoter identification was based on the Allen Brain Atlas in situ hybridization (ISH) data (mouse.brain-map.org/). Genes highly expressed in the striatum but not in other parts of the basal ganglia were first selected as candidates. H3K4me1 and H3K27ac are known epigenetic marks for active promoters and enhancers. Thus, we identified regions with high levels of these two chromatin modification marks in mouse brain as candidate regions based on the ENCODE annotation data on the UCSC Genome Browser (genome.ucsc.edu/). To further extend the promoters' potential application in primates, the sequences of interest were PCR-amplified from human genomic DNA. Based on the above strategies, GPR88 was selected as a candidate gene. The nucleotide sequence upstream of the start codon with high H3K4me1 and H3K27ac levels was selected as the candidate promoter sequence. G88P2 (2259 bp) was cloned with the following primers: 5′-[…]-3′ (SEQ ID NO: 36), 5′-[…]-3′ (SEQ ID NO: 58). G88P3 (1395 bp) and G88P7 (896 bp) were further shortened by subcloning.
Promoters were subcloned into a pAAV-hSyn-EYFP vector derived from pAAV-hSyn-EGFP (Addgene, 50465) to replace the hSyn promoter by using appropriate restriction enzyme combinations. To generate pAAV-G88P7-DIO-tdTomato, a DIO-tdTomato cassette was subcloned into pAAV-G88P7-EYFP to replace EYFP by restriction enzyme digestion. To generate pAAV-G88P3-HA-hM3Dq, promoter G88P3 was subcloned into pAAV-hSyn-HA-hM3Dq-IRES-mCitrine (Addgene, 50463) via the EcoRI/BamHI restriction sites to replace the hSyn promoter and IRES-mCitrine was removed afterwards by restriction enzyme digestion. To generate pAAV-G88P3-HA-hM3Dq-2A-EYFP, a 2A-EYFP fragment was subcloned into pAAV-G88P3-HA-hM3Dq after hM3Dq. […]
Images were acquired using a confocal microscope (Carl Zeiss, LSM880) and an Axiolmager.Z1 microscope with apotome (Carl Zeiss). […] Every sixth section was analyzed, and numbers of EYFP+ cells were multiplied by six to acquire the approximate total number and mean number of cells per animal. […]

A further data set deals with substantia nigra (SN). Nature of the data set: Promoter activity driving EYFP reporter expression after AAV injection into the SNr: substantia nigra. The class given is in vivo, mice. As to conditions: numbers of YFP-expressing neurons per animal.
Description: as §1
as §2, with “subcloning. […]” for “subcloning.”
Images were acquired using a confocal microscope (Carl Zeiss, LSM880) and an Axiolmager.Z1 microscope with apotome (Carl Zeiss). […] Every sixth section was analyzed, and numbers of EYFP+ cells were multiplied by six to acquire the approximate total number and mean number of cells per animal. Images were processed using ImageJ (NIH, USA), and final quantifications were independently performed manually by two blinded experimenters.

For the molecule “G88P2: 2259-bp promoter from the gene GPR88, SEQ ID NO: 59”, the “Activity Level STR” value in data set [1] is given as “++++ (>25 k)”. The “Activity Level SN” value in the data set with substantia nigra (SN) was “+ (<5 k)”.

B1: G88P3: 1395-bp derivative of the G88P2 promoter, SEQ ID NO: 60 (nucleic acid, listed as Homo sapiens)
DNA: TCTAGATGTACCACTGACATCTGCTTTAAATCTTTTGCCCATTTCATTTTTACCCTCTAACCATTTCATTACTAAAACACAAAACAAACTCCGGAAAGGAGTTTGTTGATGAGAAAACACTGAAAGTACGATTTAAATTGAGGAATGGAGATTTTCTGTGGATAATTGTCTATGTTCCACTTTACCAAAGAAAAATGAATTTCAAGTAGTGCATAAAGTAATTCTCGTTAAAAAATGTGGGAATAAAGAGATCAGTCCTGGGTACTGGGAATATATTTATCTCACAGAAAAATCTTGCCCACAAAATGCATCAGACTGAGATGAAATACTCTAGGGTATATTAAATTTTATTCTAATATTGAAGGGAGGGAAAAAAAGGACGGAAAGAAAAATGAAACAGGATGAAAAATAAGGTGATTGGGAGAGAGAAAAGACAGAGAAACTTGTTAACGACAGGACTTTCTGAGCAAGATATTTTTCTTCCTTTTACAAGTTGGAAGCTATTGAATAATTCATGCCAAGCGTGGAAAGGCTGTCTTTTCCCTGGATGATGTATAACTAAGCAGGAGAGAGCTTCGAGTGGGTTCACCACATCAGCCACCACTCCTGCTTCTGAGCACAGGGTGCTCTCCTCTTGAGCTCAGCTTCTGCTTTTGCAGCCAAGCATTCTTGCTGCTGCTGCCTGCCTGCCCACCCGCCTGGGCTTGCAGCCCGCCACTTTACTTTCTCCAGCCCTGATACCAGCTGAGAAGTCTCCCTGCAGCTGCTAGTTCCTGCCCAGGACCATGTGTGTGGATGCTGCTTGGGAGAAGCGGGCACTTGCTCCTGGCACTGATCCCAGCTGAGTTTCTCCTGTTGATTTCTGGACCACTGATGCTGTTGCTGAGGAGGTATTTCCCGGCATCCCTCCCCCTGAGACACCGGCTAAGGACCAGCCTAAACGCAAGGTAACCTTCACCTCTTTCCCATGGGATTTTCCCCAGCTGGGATATCTCTGCTTTCTCCTGGAACTAGGTCCTCCAGCTGGCAACATATCTCTCTCTCTCTCTCTCTCTCTCTCTCTCTCTCTCTGTGTGTGTGTGTGTGTGTTGGGGGAGAAGAGGAGACTGTTTTAGGTATTGCTCTGTCCTAGGGCTTCCCCGATACCTGCTGAATCCAATGCAAAGTGGCCTTTCCCCTGGCTCTGGAGACATTTCCGAGGCAGGCACCTGTCATTTGCCACCCCCGTCCTCCTCCTCGAGCTCCCTTTCTCCCCCTCCCCCAGCCCATTATTCTGCTTCAGCCTTTTGTGTCAGTGGCAGAGGGCTGAAGGGATGTCTTTGCCCTTCTGGCAGGCAGGACAGTGTCAGGATGGACCGCGCTGCCAGAAGCCGACGCTAGCGAGGGAGGTGTGAA
As to B1, in data set [1] (mean±SEM, n=3 mice, AAV8R12 capsid), the “labeled MSNs, reporter expression driven by promoter (FIG. 4B)” value is recorded as 37026±6646. Also, in data set [1], the “Activity Level STR” value is “++++ (>25 k)”. In addition, the “Activity Level SN” value with substantia nigra (SN) is “+ (<5 k)”.

The record behind these values is US20250382588A1, “CHIMERIC AAV AND USES THEREOF” (priority 2023, published 2025).
